Where a chain is given by its changes, count along the chain named. Names may count otherwise.
B1: composite human mAb VH2/Vκ2 (antibody, V domains shown)
VH: QVQLVQSGSELKKPGASVKLSCKASGYTFTRYWMHWVKQAPGQGLEWIGNIYPDSDSTNYDEKFRTRATLTADTSTSTAYMELSSLRSEDTAVYYCTRMGFYAMDYWGQGTTVTVSS
VL: NIVMTQSPSSLSASVGDRVTITCKASENVVTYVSWFQQKPGQAPKLLIYGASNRYTGVPDRFSGSGSATDFTLTISSLQAEDVADYHCGQSYSYPLTFGQGTKLEIKR
notes: Human IgG4 (S241P hinge mutant) heavy chain and human kappa light chain
B2: composite human mAb VH2/Vκ1 (antibody, V domains shown)
VH: B1 VH
VL: B1 VL with S63T
notes: as for B1
B3: composite human mAb VH1/Vκ1 (antibody, V domains shown)
VH: B1 VH with P41H, E82H, R87T, T91S, T112S
VL: B1 VL with S63T
notes: as for B1
B4: composite human mAb VH3/Vκ1 (antibody, V domains shown)
VH: B1 VH with K38R, A68V
VL: B1 VL with S63T
notes: as for B1
B5: composite human mAb VH3/Vκ2 (antibody, V domains shown)
VH: B1 VH with K38R, A68V
VL: B1 VL
notes: as for B1
B6: composite human mAb VH3/Vκ3 (antibody, V domains shown)
VH: B1 VH with K38R, A68V
VL: B1 VL with N1D, A68G
notes: as for B1
B7: composite human mAb VH1/Vκ4 (antibody, V domains shown)
VH: B1 VH with P41H, E82H, R87T, T91S, T112S
VL: B1 VL with N1D, A68G, D85T
notes: as for B1
B8: composite human mAb VH3/Vκ4 (antibody, V domains shown)
VH: B1 VH with K38R, A68V
VL: B1 VL with N1D, A68G, D85T
notes: as for B1
B9: composite human mAb VH1/Vκ2 (antibody, V domains shown)
VH: B1 VH with P41H, E82H, R87T, T91S, T112S
VL: B1 VL
notes: as for B1
B10: composite human mAb VH2/Vκ4 (antibody, V domains shown)
VH: B1 VH
VL: B1 VL with N1D, A68G, D85T
notes: as for B1
B11: composite human mAb VH2/Vκ3 (antibody, V domains shown)
VH: B1 VH
VL: B1 VL with N1D, A68G
notes: as for B1
B12: composite human mAb VH1/Vκ3 (antibody, V domains shown)
VH: B1 VH with P41H, E82H, R87T, T91S, T112S
VL: B1 VL with N1D, A68G
notes: as for B1
B13: mouse mAb anti-FXI 34.2 (antibody, V domains shown)
VH: QVQLQQPGSELVRPGASVKLSCKASGYTFTRYWMHWVKQRHGQGLEWIGNIYPDSDSTNYDEKFRTKATLTADTSSSTAYMHLSSLTSEDSAVYYCTRMGFYAMDYWGQGTSVTVSS
VL: NIVMTQSPKSMSMSVGERVTLSCKASENVVTYVSWFQHKPEQSPKLLIYGASNRYTGVPDRFTGSGSATDFTLTISSVQAEDLADYHCGQSYSYPLTFGAGTKLELKR
notes: Mouse IgG purified from hybridoma supernatant by protein G

Molecular target: T1, human coagulation factor XI (FXI) (human, UniProt P03951 19-625)
Assay: cell-based or functional assay

Binder | APTT (% NPP)
B1 | 243
B2 | 252
B3 | 253
B4 | 250
B5 | 255
B6 | 256
B7 | 260
B8 | 255
B9 | 248
B10 | 259
B11 | 247
B12 | 257

Molecular target: T1, human coagulation factor XI (FXI)
Assay: SPR (Biacore), FXI immobilized on CM5 chip, mAb as analyte
Experimental: (§1) Surface plasmon resonance was on a Biacore 2000 (GE Healthcare) equipped with a research-grade cm5 sensor chip to assess the affinity constants of the mAbs for FXI. Factor XI was immobilized using amine-coupling chemistry. the surface was activated for 7 min with a 1:1 mixture of 0.1 M N-hydroxysuccinimide and 0.1 M 3-(N,N-dimethylamino) propyl-N-ethylcarbodiimide at a flow rate of 10 l per min. The ligand at a concentration of 10 μg/ml in 10 mM sodium acetate, pH 5.5, was immobilized at a density of 1000 ru. An untreated flow cell served as a reference surface. All the surfaces were blocked with a 7 min injection of 1 M ethanolamine, pH 8.0. The following protocol was used to assess kinetic binding of the mAbs to FXI. […] The complex was allowed to associate and dissociate for 360 and 600 seconds, respectively. The surfaces were regenerated with a 10 seconds injection of 50 mM NaOH. Triplicate injections (in random order) of each sample and a buffer blank were flowed over the two surfaces. Data were collected at a rate of 1 Hz. The data were fit to a simple 1:1 interaction model using the global data analysis option available within BiaEvaluation 4.1 software.

Binder | Kd [nM]
B1 | 0.88
B2 | 0.24
B3 | 0.12
B4 | 0.13
B5 | 0.079
B6 | 0.081
B7 | 0.35
B8 | 0.42
B9 | 0.25
B10 | 0.062
B11 | 0.51
B12 | 0.17

Molecular target: T1, human coagulation factor XI (FXI)
Assay: as above
Remark: another data set of the same source
Experimental: as §1

Binder | Kd [nM]
B13 | 0.2

Molecular target: T1, human coagulation factor XI (FXI)
Assay: competition ELISA on coated human FXI; competitor biotinylated murine mAb anti-FXI 34.2
Text: The binding of the biotinylated antibody was detected with streptavidin-HRP (Sigma) and OPD substrate (Sigma. The reaction was stopped with 3M HCl, absorbance read at 490 nm on a Dynex Technologies MRX TC II plate reader and the binding curves plotted.

Binder | Relative IC50
B1 | 0.92 relative to IC50 of mouse-human chimeric mAb anti-FXI 34.2
B2 | 0.84 relative to IC50 of mouse-human chimeric mAb anti-FXI 34.2
B3 | 0.75 relative to IC50 of mouse-human chimeric mAb anti-FXI 34.2
B4 | 0.87 relative to IC50 of mouse-human chimeric mAb anti-FXI 34.2
B5 | 0.87 relative to IC50 of mouse-human chimeric mAb anti-FXI 34.2
B6 | 0.99 relative to IC50 of mouse-human chimeric mAb anti-FXI 34.2
B7 | 0.89 relative to IC50 of mouse-human chimeric mAb anti-FXI 34.2
B8 | 1.13 relative to IC50 of mouse-human chimeric mAb anti-FXI 34.2
B9 | 0.69 relative to IC50 of mouse-human chimeric mAb anti-FXI 34.2
B10 | 0.98 relative to IC50 of mouse-human chimeric mAb anti-FXI 34.2
B11 | 0.93 relative to IC50 of mouse-human chimeric mAb anti-FXI 34.2
B12 | 0.91 relative to IC50 of mouse-human chimeric mAb anti-FXI 34.2
